In patent publication US20160228506A1, “Compositions and Formulations for Prevention and Reduction of Tumorigenesis, Cancer Cell Proliferation and Invasion, and Methods of Production and Use Thereof in Cancer Treatment” (PRONUTRIA, INC., priority 2013, published 2016):

B1: SEQID-00345: nutritive polypeptide (protein)
chain: MNTLDLQNQRILVTGGAGFLGKQVIDQLLKAGAKSENISVPRSHNCDLRNLEACQQAAKGQDIIIHLAAHVGGIGLNQVKPAELFYDNLMMGTQLIHSAYQAGVKKFVCVGTICAYPKFTPVPFQEDDLWNGYPEETNAPYGIAKKALLVQLQAYRQQYGFNGIYLLPVNLYGPEDNFNPKSSHVIPALVRKVYEAQQRGDKQLPVWGDGSPSREFLYSTDAARGIVMATQHYDEPDPVNLGTNSEVTIRDLVELICELMEFQGEIVWETDKPNGQPRRCLDTNRAKERFGFVAEVEFRQGLKNTIDWYRQNPDL
modifications: Arthrospira platensis NIES-39
B2: SEQID-00346: nutritive polypeptide (protein)
chain: MYYDADANLDLLAGKTIAIVGYGSQGHAHALNLKDSGMNVIVGLYPGSKSATKAKDAGLTVYPVDEAAKIADLIMILLPDEVQKTVYKNEIEPNLSEGKTLAFAHGFNIHFGQVVPPENVDVIMVAPKGPGHLVRRTYQEGQGVPCLFAVYQDASGQARDRAMAYAKGIGGTRGGILETTFREETETDLFGEQAVLCGGLSALIKAGFETLVEAGYQPELAYFECLHEVKLIVDLVVEGGLAQMRDSISNTAEYGDYTRGPRVITDATRAEMRKILKEIQTGQFAREFVLENQSGKAGFTAMRRQEAEHPIEEVGHDLRAMFSWLKKKA
modifications: Arthrospira platensis NIES-39
B3: SEQID-00354: nutritive polypeptide (protein)
chain: MSLSNKLTLDKLDVKGKRVVMRVDFNVPMKNNQITNNQRIKAAVPSIKYCLDSGAKSVVLMSHLGRPDGVPMPDKYSLQPVAVELKSLLGKDVLFLKDCVGPEVEKACADPAAGSVILLENLRFHVEEEGKGKDASGNKVKAEPTKIEAFRASLSKLGDVYVNDAFGTAHRAHSSMVGVNLPKKAGGFLMKKELNYFAKALESPERPFLAILGGAKVADKIQLISNMLDKVNEMIIGGGMAFTFLKVLNNMEIGTSLFDEEGSKIVKDLMSKADKNGVKITLPVDFVTADKFDENAKTGQATVASGIPVGWMGLDCGPESSKKYAEAVARAKQIVWNGPVGVFEWEAFARGTKALMDEVVKATSRGCITIIGGGDTATCCAKWNTEDKVSHVSTGGGASLELLEGKVLPGVDALSSV
modifications: Ovis aries
B4: SEQID-00356: nutritive polypeptide (protein)
chain: MATAAEKLSALKSAVAGLNEISENEKNGFISLVGRYLSGEAQHVEWSKIQTPTDEVVVPYDTLAPTPEGSSEVKNLLDKLVVLKLNGGLGTTMGCTGPKSVIEVRDGLTFLDLIVIQIENLNSKYGSNVPLLLMNSFNTHDDTQKIVEKYQNSNIEIHTFNQSQYPRLVVEDFLPLPSKGHTDKDGWYPPGHGDVFPSLLNSGKLDALLSQGKEYVFVANSDNLGAIVDLKILNHLIQNKNEYCMEVTPKTLADVKGGTLISYEGRVQLLEIAQVPDEHVNEFKSIEKFKIFNTNNLWVNLNAVKRLVEADALKMEIIPNPKEVDGIKVLQLETAAGAAIRFFDKAIGINVPRSRFLPVKATSDLLLVQSDLYTLEDGFVIRNKARENPENPSIELGPEFKKVSNFLGRFKSIPSIVELDSLKVAGDVWFGAGVILKGKVSIVSKPGVKLEVPDGVAIVDKEINGPEDL
modifications: Glycine max
B5: SEQID-00357: nutritive polypeptide (protein)
chain: MKPLNRRTKIVATIGPASNSREVLYQMIQAGMNVVRLNFSHGSHEQHTKTVALLKEISQELKTSITLLQDLQGPKIRVGQLPDGGIQLMAGEYITLVPIDQYESKPNTIAIDYLHLGEEAEIGAQVLLDDGLLELKVEEISGNQVKCKIIEGGTLKSRKGVNLPSLTLRLPSLTEKDQQDLEFGISLGVDWVSLSFVRNAEDVRVLKDFLASKNASQISVMAKIEKPQAIANLEEIISECNGLMVARGDLGVEMSPERVPLLQKQIIRLCNQKGIPVITATQMLDSMINNPRPTRAEASDVANAIIDGTDAVMLSGESAVGKYPIRAVEMLAKIAEDVEPEINFINYPPAFNDETHAISEAINTIDKIIDLHCIIAYTCSGYTGQLAAAERPKAPVVALTPNPKVYHRLNLVWGVKPLLLEQEVESFEELINQAQTYLLVRQMASPGDKILIIGGIPSGKAKGTNFIKIHTIG
modifications: Arthrospira platensis NIES-39
B6: SEQID-00359: nutritive polypeptide naturally produced in Sheep, recombinantly expressed in E. coli (protein)
chain: MLELGSQRNRAKNNHIGDLMSQSFESLGISEQRARHLETLGFTEPTPVQIQAIPEMLSGRDVVGMAQTGTGKTAAFSLPILEQIDVHAAGIQALVLTPTRELAMQVKEAIRTFSDDNALYVLTVYGGQSIDRQIQRLRRGVQVVVGTPGRILDLLNRGELKLDLLRWLVLDEADEMLSMGFIQDVEKILESADSEHRQTAFFSATMDASISKLVRRHLKSPVTVKVETPKATPKRIEQSVYMVPRGWSKARALEPILELEDPESAIIFVRTKQSAADLTNQLQAAGHSVDEYHGNLNQSQRERLLMRLRRRQVRWIVATDIAARGLDVDHLTHVINYDLPDQVDSYVHRIGRTGRAGREGKAITLIQPIDRRKLRNIERHLRQTLSIQSIPKRAEIEARYIDRLKDRVRDALAGERMASFLPIVSQLSEEYDPHAIAAAALQLAYDQTRPASIGRDDYEDDDDAVSNKPKLIKRRRPASVSNNS
modifications: Arthrospira platensis NIES-39
B7: SEQID-00001 (HEK293): nutritive polypeptide (protein, listed as Gallus gallus)
chain: MGSIGAASMEFCFDVFKELKVHHANENIFYCPIAIMSALAMVYLGAKDSTRTQINKVVRFDKLPGFGDSIEAQCGTSVNVHSSLRDILNQITKPNDVYSFSLASRLYAEERYPILPEYLQCVKELYRGGLEPINFQTAADQARELINSWVESQTNGIIRNVLQPSSVDSQTAMVLVNAIVFKGLWEKAFKDEDTQAMPFRVTEQESKPVQMMYQIGLFRVASMASEKMKILELPFASGTMSMLVLLPDEVSGLEQLESIINFEKLTEWTSSNVMEERKIKVYLPRMKMEEKYNLTSVLMAMGITDVFSSSANLSGISSAESLKISQAVHAAHAEINEAGREVVGSAEAGVDAASVSEEFRADHPFLFCIKHIATNAVLFFGRCVSP
modifications: expressed in HEK293
B8: SEQID-00363 (E. coli): SEQID-00363 expressed recombinantly in E. coli (protein)
chain: ATLDSWLSNEATVARTAILNNIGADGAWVSGADSGIVVASPSTDNPDYFYTWTRDSGLVLKTLVDLFRNGDTSLLSTIENYISAQAIVQGISNPSGDLSSGAGLGEPKFNVDETAYTGSWGRPQRDGPALRATAMIGFGQWLLDNGYTSTATDIVWPLVRNDLSYVAQYWNQTGYDLWEEVNGSSFFTIAVQHRALVEGSAFATAVGSSCSWCDSQAPEILCYLQSFWTGSFILANFDSSRSGKDANTLLGSIHTFDPEAACDDSTFQPCSPRALANHKEVVDSFRSIYTLNDGLSDSEAVAVGRYPEDTYYNGNPWFLCTLAAAEQLYDALYQWDKQGSLEVTDVSLDFFKALYSDAATGTYSSSSSTYSSIVDAVKTFADGFVSIVETHAASNGSMSEQYDKSDGEQLSARDLTWSYAALLTANNRRNSVVPASWGETSASSVPGTCAATSAIGTYSSVTVTSWPSIVATGGTTTTATPTGSGSVTSTSKTTATASKTSTSTSSTSCTTPTAVAVTFDLTATTTYGENIYLVGSISQLGDWETSDGIALSADKYTSSDPLWYVTVTLPAGESFEYKFIRIESDDSVEWESDPNREYTVPQACGTSTATVTDTWR
modifications: Aspergillus niger
B9: SEQID-00407 (BS): α-amylase in Bacillus subtilis; Wild-type of Tables E37A and E38E (protein, listed as Bacillus subtilis)
chain: ETANKSNELTAPSIKSGTILHAWNWSFNTLKHNMKDIHDAGYTAIQTSPINQVKEGNQGDKSMSNWYWLYQPTSYQIGNRYLGTEQEFKEMCAAAEEYGIKVIVDAVINHTTSDYAAISNEVKSIPNWTHGNTQIKNWSDRWDVTQNSLLGLYDWNTQNTQVQSYLKRFLDRALNDGADGFRFDAAKHIELPDDGSYGSQFWPNITNTSAEFQYGEILQDSASRDAAYANYMDVTASNYGHSIRSALKNRNLGVSNISHYASDVSADKLVTWVESHDTYANDDEESTWMSDDDIRLGWAVIASRSGSTPLFFSRPEGGGNGVRFPGKSQIGDRGSALFEDQAITAVNRFHNVMAGQPEELSNPNGNNQIFMNQRGSHGVVLANAGSSSVSINTATKLPDGRYDNKAGAGSFQVNDGKLTGTINARSVAVLYPDDIAKAPHVFLENYKTGVTHSFNDQLTITLRADANTTKAVYQINNGPETAFKDGDQFTIGKGDPFGKTYTIMLKGTNSDGVTRTEKYSFVKRDPASAKTIGYQNPNHWSQVNAYIYKHDGSRVIELTGSWPGKPMTKNADGIYTLTLPADTDTTNAKVIFNNGSAQVPGQNQPGFDYVLNGLYNDSGLSGSLPH
modifications: source: /note="strain 168"
B10: SEQID-00418: nutritive polypeptide (protein)
chain: VPRVRRQGASSSFDYKSQIVRGVNLGGWLVTEPWITPSLYDSTGGGAVDEWTLCQILGKDEAQAKLSSHWSSFITQSDFDRMAQAGLNHVRIPIGYWAVAPIDGEPYVSGQIDYLDQAVTWARAAGLKVLVDLHGAPGSQNGFDNSGHRGPIQWQQGDTVNQTMTAFDALARRYAQSDTVTAIEAVNEPNIPGGVNEDGLKNYYYGALADVQRLNPSTTLFMSDGFQPVESWNGFMQGSNVVMDTHHYQVFDTGLLSMSIDDHVKTACSLATQHTMQSDKPVVVGEWTGALTDCAKYLNGVGNAARYDGTYMSTTKYGDCTGKSTGSVADFSADEKANTRRYIEAQLEAYEMKSGWLFWTWKTEGAPGWDMQDLLANQLFPTSPTDRQYPHQCS
modifications: Aspergillus niger; source: /note="strain CBS 513.88 / FGSC A1513"
B11: SEQID-00418 (E. coli): nutritive polypeptide (protein)
chain: VPRVRRQGASSSFDYKSQIVRGVNLGGWLVTEPWITPSLYDSTGGGAVDEWTLCQILGKDEAQAKLSSHWSSFITQSDFDRMAQAGLNHVRIPIGYWAVAPIDGEPYVSGQIDYLDQAVTWARAAGLKVLVDLHGAPGSQNGFDNSGHRGPIQWQQGDTVNQTMTAFDALARRYAQSDTVTAIEAVNEPNIPGGVNEDGLKNYYYGALADVQRLNPSTTLFMSDGFQPVESWNGFMQGSNVVMDTHHYQVFDTGLLSMSIDDHVKTACSLATQHTMQSDKPVVVGEWTGALTDCAKYLNGVGNAARYDGTYMSTTKYGDCTGKSTGSVADFSADEKANTRRYIEAQLEAYEMKSGWLFWTWKTEGAPGWDMQDLLANQLFPTSPTDRQYPHQCS
modifications: Aspergillus niger; source: /note="strain CBS 513.88 / FGSC A1513"

Experiment: Intact half-life during simulated gastric fluid (SGF) digestion
Settings: SGF pH 1.5, pepsin:polypeptide 1:20 w/w, 37° C.; intact protein
For B1, the “SGF Half-life (t½)” value was 48 s.
For B2, the “SGF Half-life (t½)” value was 12 s.
In the case of B3, the “SGF Half-life (t½)” value is reported as 12 s.
In the case of B4, the “SGF Half-life (t½)” value is reported as 12 s.
With B5 the “SGF Half-life (t½)” value was 12 s.
For B6, the “SGF Half-life (t½)” value was 12 s.
With B7 the “SGF Half-life (t½)” value was 516 s.
For B8, the “SGF Half-life (t½)” value was <600 s.
For B9, the “SGF Half-life (t½)” value was 12 s.
For B10, the “SGF Half-life (t½)” value was 12 s.
In the case of B11, the “SGF Half-life (t½)” value is reported as 30 s.
